# Reference: patent publication US20130309670
# How the values were obtained:
# [1] = test system: Il2rg ZFN-1 (zinc finger-FokI nuclease) (synthetic construct); experiment: cell_activity; settings: pair ZFN-1+ZFN-2, clones with ZFN cleavage (6/192) in mouse F1H4 ES cells without LTVEC; 6.9% among non-targeted clones with LTVEC; 6 bp spacer
# [2] = test system: Il2rg ZFN-2 (zinc finger-FokI nuclease) (synthetic construct); experiment: cell_activity; settings: pair ZFN-1+ZFN-2, clones with ZFN cleavage (6/192) in mouse F1H4 ES cells without LTVEC; 6.9% among non-targeted clones with LTVEC; 6 bp spacer
Sequence,activity [1] [%],activity [2] [%]
AGCTCCAAGGTCCTC (double strand) [Il2rg exon 1 ZFN-1 half-site (sense strand)],3.1,–
GTCTTCATTCGCACT (double strand) [Il2rg exon 1 ZFN-2 half-site (antisense strand)],–,3.1
